Publication PMC4303595

Molecular target: Ccc1(1-109), truncated recombinant fragment of Ccc1 that contains its chromodomain (Cryptococcus neoformans)
Assay: fluorescence polarisation

| Kd [µM] | Substance |
| --- | --- |
| 119 | unlabeled Cryptococcus H3K27me2 peptide |
| 28 | unlabeled Cryptococcus H3K27me3 peptide |
